{
  "source": "paper doi:10.1101/2022.08.24.505195",
  "about": "(bioRxiv, 2022)",
  "biological_target": "the molecule itself",
  "assay": "SEC",
  "data": [
    {"protein": "EBOV VP40 with 6xHis tag (pET46-VP40-6xHis), recombinant dimer (natural protein) MRRVILPTAPPEYMEAIYPVRSNSTIARGGNSNTGFLTPESVNGDTPSNPLRPIADDTIDHASHTPGSVSSAFILEAMVNVISGPKVLMKQIPIWLPLGVADQKTYSFDSTTAAIMLASYTITHFGKATNPLVRVNRLGPGIPDHPLRLLRIGNQAFLQEFVLPPVQLPQYFTFDLTALKLITQPLPAATWTDDTPTGSNGALRPGISFHPKLRPILLPNKSGKKGNSADLTSPEKIQAIMTSLQDFKIVPIDPTKNIMGIEVPETLVHKLTGKKVTSKNGQPIIPVLLPKYIGLDPVAPGDLTMVITQDCDTCHSPASLPAVIEK", "values": [
      {"measurement": "stoichiometry N", "result": 2}
    ]}
  ]
}
